The text below walks through data of the nanobody polyreactivity screen of Harvey et al. (2022).

This series is described as follows: yeast display, Sf9 membrane polyspecificity reagent, FACS + sequencing; frameworks hold sequencing errors. Put shortly: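 Sorting gates, low and high (top ~1%), were placed on anti-HA fluorescence to track expression and on streptavidin fluorescence to track reagent binding. A clone's polyreactivity label is taken from the gate it came out of. The reagent was 10% biotinylated, detergent-solubilized Sf9 membrane, applied for 1 hour at 4 °C to galactose-induced yeast display cells.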
“QVQLVESGGGLVQAGGSLRLSSAASGRTFYSNAMGWYRQAPGKEREFVAAINWSGTSTYADSVKGRFTISRDNAKNTVYLQMNSLKPEDTAVYYCAKTYRTLVRYWGQPFGYWGQGTQVTVSS”: the “polyreactivity (PSR sort gate)” value is on record as “high polyreactivity”.

On to “QVQLVESGGGLVQAGGSLRLSSAASGRTLARNAMGWYRQAPGKERELVAGITSGGSTDYADSVKGRFTISRDNAKNTVYLQMNSLKPEDTAVYYCNRDAGPGGDYWGQGTQGTVSS”, for which the “polyreactivity (PSR sort gate)” value was “low polyreactivity”.

Take “QVQLVESGGGLVQAGGSLRLSSAASGSIFAWYGMGWYRQAPGKERELVAAISTAGSTNYADSVKGRFTISRDNAKNTVYLQMNSLKPEDTAVYYCAKKSSWYYPERFDYWGQGTQVTVSS”: the “polyreactivity (PSR sort gate)” value was “low polyreactivity”.

Take “QVQLVESGGGLVQAGGSLRLSSAASGSIFDYYAMGWSRQAPGKERELVAAISGSGGSTYYADSVKGRFTISRDNAKNTVYLQMNSLKPEDTAVYYCNVYYRRRYDYWGQGTQVTVSS”: the “polyreactivity (PSR sort gate)” value was “high polyreactivity”.

With “QVQLVESGGGLVQAGGSLRLSSAASGSIFERYTMAWYRLAPGKERELVAVISTGGGSTNYADSVKGRFTFSRDNAKNTVYLQMNSLKPADTAVYYCAASYGYYRYGYWGQGTQVNVSS”, the “polyreactivity (PSR sort gate)” value is “high polyreactivity”.

For “QVQLVESGGGLVQAGGSLRLSSAASGSIFGSNAMGWYRQAPGKERELVATITTSGGITYYADSVKGRFTISRDTAKNTVYLQMNSLKPEDTAVYYCAAAEGGGLVTYDYWGQGTQVTVSS”, the “polyreactivity (PSR sort gate)” value is recorded as “low polyreactivity”.

“QVQLVESGGGLVQAGGSLRLSSAASGSIFLGNAMGWYRQAPGKERELVAAISSITGRTYYADSVKGRFTISRDNAKNTVYLQMNSLKPEDTAVYYCAATSLIYGYRTYDYWGQGTQVTVSS”: the “polyreactivity (PSR sort gate)” value is given as “high polyreactivity”.

Consider “QVQLVESGGGLVQAGGSLRLSSAASGSIFLVNAMGWYRQAPGKERELVAAINSGGSTYYADSVKGRFTISRDNAKNTVYLQMNSLKPEDTAVYYCAADFWLKVWQDTDYDFDYWGQGTQVTVSS”, for which the “polyreactivity (PSR sort gate)” value was “low polyreactivity”.

In the case of “QVQLVESGGGLVQAGGSLRLSSAASGSIFRIYAMGWYRQAPGKERELVAAMSSGGSTYYADSVKGRFTISRDNAKNTVYLQMNSLKPEDTAVYYCAAYPEYVSGAWYDYWGQGTQVTLSS”, the “polyreactivity (PSR sort gate)” value is recorded as “low polyreactivity”.

In the case of “QVQLVESGGGLVQAGGSLRLSSAASGSIFRWNAMGWYRQAPGKERELVAVITWRGGRTYYADSVKGRFTISRDNAKNTVYLQMNSLKPEDTAVYYCGKGRLVTTLFGHYATFEYDSWGQGTQVTVSS”, the “polyreactivity (PSR sort gate)” value is given as “high polyreactivity”.

In the case of “QVQLVESGGGLVQAGGSLRLSSAASGSIFSSYAMGWYRQAPGKERELVAAISTGGSTYYADSVKGRFTISRDNAKNTVYLQMNSLKPEDTAVYYCAAGIMDLKLYFSSYDYWGQGTQVTVSS”, the “polyreactivity (PSR sort gate)” value is on record as “low polyreactivity”.

With “QVQLVESGGGLVQAGGSLRLSSAASGSIFYGNAMGWYRQAPGKESELVAAISARGGSTNYADSVKGRFTISRDNAKITVYLQMNSLIPEDTAVYYCAAKVRVWYYRMDSWGQGTQVTVSS”, the “polyreactivity (PSR sort gate)” value is recorded as “low polyreactivity”.

Regarding “QVQLVESGGGLVQAGGSLRLSSAASGSIFYVYAMGWYRQAPGKERELVAAISRRGARTYYADSVKGRFTISRDNEKNTVYLQMNILKPEDTAVYYCYADQYHTVGYSAEYEYWGQGTQVTVSS”, the “polyreactivity (PSR sort gate)” value is “low polyreactivity”.

In the case of “QVQLVESGGGLVQAGGSLRLSSAASGSILTPNAMGWYRQAPGKERELVAAINYSGGSTYYADSVKGRFTISRDTAKNTVYLQMNSLKPEDTAVYYCAVPYWYGRGHCYWGQGTQVTVSS”, the “polyreactivity (PSR sort gate)” value was “low polyreactivity”.

With “QVQLVESGGGLVQAGGSLRLSSAASGSIYGYTMGWYRQAPGKERELVAAINRRADRTYYADSVKGRFTISRDNAKNTVYLEMNILKPEDTAVYYCNKGGWYTLGYWGQGTQVTVSS”, the “polyreactivity (PSR sort gate)” value is “high polyreactivity”.

“QVQLVESGGGLVQAGGSLRLSSAASGSTFDDYVMGWYRQAPGKERELVAGINSRGTSTDYADSVKGRFTISRDNAKNTVYLQMNSLKPEDTAVYYCNAESPSGRLFDDAYENDYWGQGTQVTVSS”: the “polyreactivity (PSR sort gate)” value is “low polyreactivity”.

Regarding “QVQLVESGGGLVQAGGSLRLSSAASGSTFEYNAMGWYRQAPGKERELVASSTNYADSVKGRFTISRDNAKNTVYLQMNSLKPEDTAVYYCAREQGVNRNHDYWGQGTQVTVSS”, the “polyreactivity (PSR sort gate)” value is recorded as “low polyreactivity”.

Take “QVQLVESGGGLVQAGGSLRLSSAASGSTFLLNAMGWYRQAPGKERELVAAITWSGSRTYYADSVKGRFTISRDNPKYNVYLQMNSLKPEDTAVYDCAAEYRDTRRYSYDYWGQGTQVTVSW”: the “polyreactivity (PSR sort gate)” value is “high polyreactivity”.

“QVQLVESGGGLVQAGGSLRLSSAASGSTFQFYAMGWYRQAPGKERELVADITSGDDTNYADSVKGRFTISRDNAKNTVYLQMNSLKPEDTAVYYCAVEYILFYTRVRSYWFDYWGQGTQVTVSS”: the “polyreactivity (PSR sort gate)” value is given as “low polyreactivity”.

Take “QVQLVESGGGLVQAGGSLRLSSAASGSTFSLNAMGWYRQAPGKERELVASISSGDSTNYADSVKGRFTISLDNAKNTVYLQMNSLKPEDTAVYYCAADGWVLSLARGYYTYDYWGLGTQVTVSS”: the “polyreactivity (PSR sort gate)” value is “low polyreactivity”.

As to “QVQLVESGGGLVQAGGSLRLSSAASGSTFVNYVMGWYRQAPGKERELVAAISRRGTSTSYADSVKGRFTISRDNAKNTVYLQMNSLKPVDTAVYYCITLRQLGRPFYYWGQGTQVTVSS”, the “polyreactivity (PSR sort gate)” value is listed as “high polyreactivity”.

As for “QVQLVESGGGLVQAGGSLRLSSAASGSTFYLNTMGWYRQAPGKEREFVAAISARGGSTYYADSVKGRFTISRDNAKNTVYLQMNSLKPEDTAVYYCAAKFVRFYWNYDYWGQGTQVTVSS”, the “polyreactivity (PSR sort gate)” value is on record as “high polyreactivity”.

Regarding “QVQLVESGGGLVQAGGSLRLSSAASGSTFYSYAMRWYRQAPGKERELVAAINWDGVSTYYADSVKGRFSISRDNAMNTVYLQMNSLKPEDTAVYYCAADLFSGYRISGTFYYWGQGTQVTVSS”, the “polyreactivity (PSR sort gate)” value is reported as “low polyreactivity”.

For “QVQLVESGGGLVQAGGSLRLSSAASGSTFYWYAMGWYRQAPGKERELVASITRSGVRTYYADSVKGRFTISRDNAKNTVYLQMNSLKPEDTAVYYCAAERYYFPRSYRYGYWGQGTQVTVSS”, the “polyreactivity (PSR sort gate)” value was “low polyreactivity”.

For “QVQLVESGGGLVQAGGSLRLSSAASGSTLYRYAMGWYRQAPGKERELVAAISRSGGNTYYADSVKGRFTISRDNAKNTVYLQMNSLKPEDTAVYYCNADSFIRYDYWGQGTQVTVSS”, the “polyreactivity (PSR sort gate)” value was “high polyreactivity”.

On to “QVQLVESGGGLVQAGGSLRLSSAASGYTFTINTMGWYRQAPGKERELVAAITWRGGSTYYADSVKGRFSISRDNAKNTVYLQMNSLKPEDTAVYYCNKDYYITTTTFDYWGQGTQVTVSS”, for which the “polyreactivity (PSR sort gate)” value is given as “low polyreactivity”.

Take “QVQLVESGGGLVQAGGSLRLSSAASRITFDQNAMGWYRQAPGKERELVAAITRGSSTNYADSVKGRFTISRDNAKNTVYLQMNSLKPEDTAVYYCNADGYARFRTYYSRDTREYDYWGQGTQVTVSS”: the “polyreactivity (PSR sort gate)” value is “low polyreactivity”.

On to “QVQLVESGGGLVQAGGSLRLSSAASRSIFDYYAMGWYRQAPGKEREFVAAISESSDSTYYADSVKGRFTISRDNAKNTVYLQMNSLKPEDTAVYYCAGQRGGPFPRVVDLYDYWGQGTQVTVSS”, for which the “polyreactivity (PSR sort gate)” value was “low polyreactivity”.

With “QVQLVESGGGLVQAGGSLRLSSAAYGRIFAANANGWYRQAPGKERELVAAISSGGSTNYADSVKGRFTISRDNAKNTVYLPMISLKPEDTAVYYCAADASWYAYCYYYWGQGTQVTVSS”, the “polyreactivity (PSR sort gate)” value was “low polyreactivity”.

In the case of “QVQLVESGGGLVQAGGSLRLSSAAYGSIFDSNAMGWYRQAPGKERELVAAIRYSGGRTYYADSVKGRFTISRDNAKNTVYLQMNILKPEDTAVYYCAARSKVYKVGYNYWGQGTQVTVSS”, the “polyreactivity (PSR sort gate)” value is reported as “high polyreactivity”.

For “QVQLVESGGGLVQAGGSLRLSSADSGRIFYRYMVWYRHAPGKERELVAAISGRATRTYYADSVKGRFTISRDNAKKTVYLQMNSLKPEDTAVYYCAKRSYHGGDYWGQGTQVTVSS”, the “polyreactivity (PSR sort gate)” value is reported as “high polyreactivity”.

“QVQLVESGGGLVQAGGSLRLSSAGSGRIFQPYAMGWYRQAPGKERELVAAITRRAGSTYYADSVKGRFTISRDNAKNTVYLQMNSLKPEDTAVYYWAARGLYWAYEMEDWGQGTQVTVSS”: the “polyreactivity (PSR sort gate)” value is listed as “low polyreactivity”.

Consider “QVQLVESGGGLVQAGGSLRLSSAPSGRTFGVYAMGWYRQAPGKERELVAAISATGGSTYYADSVKGRFTISRDNAKNTVYLQMNSLKPEDTAVYYCARGGTTLYWGQGTQVTVSS”, for which the “polyreactivity (PSR sort gate)” value is listed as “high polyreactivity”.

Take “QVQLVESGGGLVQAGGSLRLSSASSGFTFNKYAMGRYRQAPGKERELVAAISSSGGSTRYADSVKGRFTISRDNAKNTVYLQMNSLNPEDTAVFYCAVYVTRDSGWLLYDYWGQGTQVTVSS”: the “polyreactivity (PSR sort gate)” value is “high polyreactivity”.

On to “QVQLVESGGGLVQAGGSLRLSSASSGRTFYKYAMGWYRQAPGKERELVAAISRRGGSTYYADSVKGRFTISRDNAKNTVYLQMNSLKPEDSAVYYCAAGGSVAFYYWGQGTQVTVSS”, for which the “polyreactivity (PSR sort gate)” value is “high polyreactivity”.

Regarding “QVQLVESGGGLVQAGGSLRLSSASSGSTSWIYAMGWYRPEPGKERELVAAISGRDGSTNYADSVKGRFTISRDNAKNTVYLQMIRVKPEDTAVYDCNATGRSFKRYGGDYWGQGTQVTVSS”, the “polyreactivity (PSR sort gate)” value is “high polyreactivity”.

Take “QVQLVESGGGLVQAGGSLRLSSASTGLIFRWYEMGRYRQPPGKETELVAAISRRGGTTNYADSVKGRFTISRDIAKITVYLQMNSLKPEDTAVYYCAADYQSVGVAEYEYWGQGTQVTVSS”: the “polyreactivity (PSR sort gate)” value is given as “high polyreactivity”.

Consider “QVQLVESGGGLVQAGGSLRLSSGAYGITFWTYAMGWYRQAHGKERELVAAISNGGSTSYADSVKGRFTISRDNAKNTVYLQINILKPEDTAVYYCASDWATHRPWYWCVYYWGQGTQVTVSS”, for which the “polyreactivity (PSR sort gate)” value is “low polyreactivity”.

In the case of “QVQLVESGGGLVQAGGSLRLSSPASGRTIRSYAMGSYRQAPGKERELVAAINSSGGSTYYADSVKARFTISRDNAKNTVYLQMNSLKPEDTAVYYCNTDYSSTSPWRAANYWGQGTQVTVSS”, the “polyreactivity (PSR sort gate)” value is “high polyreactivity”.

For the sequence “QVQLVESGGGLVQAGGSLRLSSPASGSIYRKYGMGSYRQAPGKERELVATITSSGGSTYYADSVKGRFSISRDNAKKTVYLQMNSLKPEDTAVYYCAADYYYLPGSYQVRAMYYWGQGTQVTVSS”, the “polyreactivity (PSR sort gate)” value is listed as “high polyreactivity”.

Take “QVQLVESGGGLVQAGGSLRLSWAASGFIFGFYAMGWYRQAPGKERELVADITSSGGSTYYADSVKGRFTISRDNAKNTVYLQMNSLKQEDTAVYYCAADGWLHNFYPGTGLDYWGQGTQVTVSS”: the “polyreactivity (PSR sort gate)” value is given as “low polyreactivity”.
